Legend:
[1] = biological target: T1, IL-17RB ΔV403˜S416 (Del-3), HA-tagged
T1 chain: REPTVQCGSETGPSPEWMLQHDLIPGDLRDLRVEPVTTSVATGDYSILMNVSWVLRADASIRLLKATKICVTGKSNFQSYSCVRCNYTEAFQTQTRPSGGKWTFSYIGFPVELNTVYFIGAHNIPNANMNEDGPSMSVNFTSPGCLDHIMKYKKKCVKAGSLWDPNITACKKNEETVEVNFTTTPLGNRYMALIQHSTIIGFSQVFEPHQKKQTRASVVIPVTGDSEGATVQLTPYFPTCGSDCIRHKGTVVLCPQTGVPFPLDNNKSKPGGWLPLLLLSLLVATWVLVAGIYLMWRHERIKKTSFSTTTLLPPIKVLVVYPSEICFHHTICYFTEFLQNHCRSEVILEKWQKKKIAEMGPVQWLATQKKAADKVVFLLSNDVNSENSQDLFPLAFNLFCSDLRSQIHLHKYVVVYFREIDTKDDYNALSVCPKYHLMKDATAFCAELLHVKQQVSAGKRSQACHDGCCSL

[2] = biological target: T2, interleukin-17 receptor B (IL-17RB), human, endogenous in pancreatic cancer cells
T2 chain: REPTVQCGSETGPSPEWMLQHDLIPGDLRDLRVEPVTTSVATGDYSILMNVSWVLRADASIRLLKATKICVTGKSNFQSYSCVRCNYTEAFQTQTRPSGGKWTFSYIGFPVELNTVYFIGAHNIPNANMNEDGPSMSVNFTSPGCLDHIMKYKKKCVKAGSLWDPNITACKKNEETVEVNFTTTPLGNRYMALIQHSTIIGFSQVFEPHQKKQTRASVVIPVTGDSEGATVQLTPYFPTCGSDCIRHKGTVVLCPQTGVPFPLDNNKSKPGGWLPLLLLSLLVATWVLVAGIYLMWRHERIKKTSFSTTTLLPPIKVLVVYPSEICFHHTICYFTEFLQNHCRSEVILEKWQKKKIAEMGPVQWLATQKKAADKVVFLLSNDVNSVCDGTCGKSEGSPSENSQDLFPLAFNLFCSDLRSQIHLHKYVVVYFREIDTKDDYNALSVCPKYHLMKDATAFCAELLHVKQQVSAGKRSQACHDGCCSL

[3] = biological target: T3, IL-17RB-Flag (Flag-tagged IL-17RB, wild type)
T3 chain: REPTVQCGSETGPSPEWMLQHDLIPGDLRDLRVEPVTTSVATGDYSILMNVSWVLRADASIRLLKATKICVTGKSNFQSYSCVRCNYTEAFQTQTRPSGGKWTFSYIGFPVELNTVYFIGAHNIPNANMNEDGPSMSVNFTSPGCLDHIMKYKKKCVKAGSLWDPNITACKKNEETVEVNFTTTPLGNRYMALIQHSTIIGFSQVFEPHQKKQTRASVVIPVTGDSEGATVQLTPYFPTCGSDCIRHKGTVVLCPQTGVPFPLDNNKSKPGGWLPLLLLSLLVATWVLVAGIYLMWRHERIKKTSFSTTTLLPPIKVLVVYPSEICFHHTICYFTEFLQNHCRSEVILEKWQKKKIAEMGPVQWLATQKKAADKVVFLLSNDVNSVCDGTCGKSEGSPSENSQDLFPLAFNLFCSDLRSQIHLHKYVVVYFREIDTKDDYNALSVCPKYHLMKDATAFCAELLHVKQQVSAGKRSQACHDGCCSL

Protein | Y447 phosphorylation of IL-17RB (immunoblot with anti-P-Y447, FIG. 5D) [1] | IL-17RB phosphorylation at Y447 (immunoblot after MLK4 knockdown or knockout, FIG. 5A) [2] | in vitro ubiquitination assay with recombinant E1, E2 and ubiquitin (FIG. 18D) [3]
mixed-lineage kinase 4 (MLK4), endogenous (protein) MALRGAAGATDTPVSSAGGAPGGSASSSSTSSGGSASAGAGLWAALYDYEARGEDELSLRRGQLVEVLSQDAAVSGDEGWWAGQVQRRLGIFPANYVAPCRPAASPAPPPSRPSSPVHVAFERLELKELIGAGGFGQVYRATWQGQEVAVKAARQDPEQDAAAAAESVRREARLFAMLRHPNIIELRGVCLQQPHLCLVLEFARGGALNRALAAANAAPDPRAPGPRRARRIPPHVLVNWAVQIARGMLYLHEEAFVPILHRDLKSSNILLLEKIEHDDICNKTLKITDFGLAREWHRTTKMSTAGTYAWMAPEVIKSSLFSKGSDIWSYGVLLWELLTGEVPYRGIDGLAVAYGVAVNKLTLPIPSTCPEPFAKLMKECWQQDPHIRPSFALILEQLTAIEGAVMTEMPQESFHSMQDDWKLEIQQMFDELRTKEKELRSREEELTRAALQQKSQEELLKRREQQLAEREIDVLERELNILIFQLNQEKPKVKKRKGKFKRSRLKLKDGHRISLPSDFQHKITVQASPNLDKRRSLNSSSSSPPSSPTMMPRLRAIQLTSDESNKTWGRNTVFRQEEFEDVKRNFKKKGCTWGPNSIQMKDRTDCKERIRPLSDGNSPWSTILIKNQKTMPLASLFVDQPGSCEEPKLSPDGLEHRKPKQIKLPSQAYIDLPLGKDAQRENPAEAESWEEAASANAATVSIEMTPTNSLSRSPQRKKTESALYGCTVLLASVALGLDLRELHKAQAAEEPLPKEEKKKREGIFQRASKSRRSASPPTSLPSTCGEASSPPSLPLSSALGILSTPSFSTKCLLQMDSEDPLVDSAPVTCDSEMLTPDFCPTAPGSGREPALMPRLDTDCSVSRNLPSSFLQQTCGNVPYCASSKHRPSHHRRTMSDGNPTPTGATIISATGASALPLCPSPAPHSHLPREVSPKKHSTVHIVPQRRPASLRSRSDLPQAYPQTAVSQLAQTACVVGRPGPHPTQFLAAKERTKSHVPSLLDADVEGQSRDYTVPLCRMRSKTSRPSIYELEKEFLS | Del-3 failed to bind to MLK4 and phosphorylate Y447 | either knockdown (left) or knockout (right) of MLK4 nearly completely abolished IL-17RB phosphorylation at Y447 | 
HA-TRIM56 (TRIM56-HA, HA-tagged tripartite-motif 56) (protein) MVSHGSSPSLLEALSSDFLACKICLEQLRAPKTLPCLHTYCQDCLAQLADGGRVRCPECRETVPVPPEGVASFKTNFFVNGLLDLVKARACGDLRAGKPACALCPLVGGTSTGGPATARCLDCADDLCQACADGHRCTRQTHTHRVVDLVGYRAGWYDEEARERQAAQCPQHPGEALRFLCQPCSQLLCRECRLDPHLDHPCLPLAEAVRARRPGLEGLLAGVDNNLVELEAARRVEKEALARLREQAARVGTQVEEAAEGVLRALLAQKQEVLGQLRAHVEAAEEAARERLAELEGREQVARAAAAFARRVLSLGREAEILSLEGAIAQRLRQLQGCPWAPGPAPCLLPQLELHPGLLDKNCHLLRLSFEEQQPQKDGGKDGAGTQGGEESQSRREDEPKTERQGGVQPQAGDGAQTPKEEKAQTTREEGAQTLEEDRAQTPHEDGGPQPHRGGRPNKKKKFKGRLKSISREPSPALGPNLDGSGLLPRPIFYCSFPTRMPGDKRSPRITGLCPFGPREILVADEQNRALKRFSLNGDYKGTVPVPEGCSPCSVAALQSAVAFSASARLYLINPNGEVQWRRALSLSQASHAVAALPSGDRVAVSVAGHVEVYNMEGSLATRFIPGGKASRGLRALVFLTTSPQGHFVGSDWQQNSVVICDGLGQVVGEYKGPGLHGCQPGSVSVDKKGYIFLTLREVNKVVILDPKGSLLGDFLTAYHGLEKPRVTTMVDGRYLVVSLSNGTIHIFRVRSPDS |  |  | purified TRIM56 could ubiquitinate IL-17RB at K470 in vitro

Source: patent publication US20240124528
